Measurements from patent publication US20160264649A1.

What was measured:
Experiment in all cases: cell-based or functional assay
[1] = target: HIV-1 MGRM-AG-002 Env (HIV-1)
[2] = target: HIV-1 92BR020 Env (HIV-1)
[3] = target: HIV-1 98CN006 Env on pseudovirus (HIV-1)
[4] = target: HIV-1 MGRM-C-001 Env on pseudovirus (HIV-1)
[5] = target: HIV-1 MGRM-D-002 Env (HIV-1)
[6] = target: HIV-1 MGRM-Chronic-B-008 Env on pseudovirus (HIV-1)
[7] = target: HIV-1 MGRM-AE-007 Env (HIV-1)
[8] = target: HIV-1 MGRM-D-008 Env (HIV-1)
[9] = target: HIV-1 MGRM-C-008 Env on pseudovirus (HIV-1)
[10] = target: HIV-1 MGRM-G-015 Env (HIV-1)
HIV-1 APV-6 Env (HIV-1) = target: HIV-1 APV-6 Env (HIV-1)
HIV-1 APV-17 Env (HIV-1) = target: HIV-1 APV-17 Env (HIV-1)
aMLV envelope = target: aMLV envelope
[11] = target: HIV-1 MGRM-C-025 Env on pseudovirus (HIV-1)
[12] = target: HIV-1 MGRM-D-005 Env (HIV-1)
[13] = target: HIV-1 94UG103 Env (HIV-1)
[14] = target: HIV-1 MGRM-AE-006 Env (HIV-1)
[15] = target: HIV-1 MGRM-G-013 Env (HIV-1)
HIV-1 APV-13 Env (HIV-1) = target: HIV-1 APV-13 Env (HIV-1)
[16] = target: HIV-1 MGRM-C-020 Env on pseudovirus (HIV-1)
[17] = target: HIV-1 MGRM-Chronic-B-004 Env on pseudovirus (HIV-1)
[18] = target: HIV-1 MGRM-G-009 Env (HIV-1)
[19] = target: HIV-1 MGRM-G-025 Env (HIV-1)
[20] = target: HIV-1 MGRM-C-022 Env on pseudovirus (HIV-1)
[21] = target: HIV-1 MGRM-AG-013 Env (HIV-1)
[22] = target: HIV-1 MGRM-C-012 Env on pseudovirus (HIV-1)
[23] = target: HIV-1 APV_17 Env on pseudovirus (HIV-1)
[24] = target: HIV-1 MGRM-D-016 Env (HIV-1)
[25] = target: HIV-1 MGRM-AG-005 Env (HIV-1)
[26] = target: HIV-1 MGRM-C-002 Env on pseudovirus (HIV-1)
[27] = target: HIV-1 MGRM-F1-017 Env (HIV-1)
[28] = target: HIV-1 92TH021 Env (HIV-1)
[29] = target: HIV-1 VLGCB3 Env on pseudovirus (HIV-1)
[30] = target: HIV-1 MGRM-F1-015 Env (HIV-1)
[31] = target: HIV-1 MGRM-G-016 Env (HIV-1)
[32] = target: HIV-1 MGRM-Chronic-B-023 Env on pseudovirus (HIV-1)
[33] = target: HIV-1 MGRM-C-019 Env on pseudovirus (HIV-1)
[34] = target: HIV-1 MGRM-AE-008 Env (HIV-1)
[35] = target: HIV-1 97ZA012 Env on pseudovirus (HIV-1)
[36] = target: HIV-1 MGRM-F1-004 Env (HIV-1)
[37] = target: HIV-1 MGRM-Chronic-B-001 Env on pseudovirus (HIV-1)
[38] = target: HIV-1 MGRM-C-010 Env on pseudovirus (HIV-1)
[39] = target: HIV-1 MGRM-AG-011 Env (HIV-1)
[40] = target: HIV-1 MGRM-F1-018 Env (HIV-1)
[41] = target: HIV-1 MGRM-D-004 Env (HIV-1)
[42] = target: HIV-1 MGRM-AE-002 Env (HIV-1)
[43] = target: HIV-1 MGRM-C-009 Env on pseudovirus (HIV-1)
[44] = target: HIV-1 MGRM-A-008 Env (HIV-1)
[45] = target: HIV-1 MGRM-A-001 Env (HIV-1)
[46] = target: HIV-1 MGRM-A-005 Env (HIV-1)
[47] = target: HIV-1 MGRM-A-012 Env (HIV-1)
[48] = target: HIV-1 MGRM-A-004 Env (HIV-1)

For 1495_C14 (PGC14) (antibody), the IC50 (µg/ml), pseudovirus neutralization [1] was > 50 µg/mL, the neutralization IC50 [2] was 0.637 µg/mL and the IC50 [3] was > 50 µg/mL. For the same substance, the IC50 [4] was > 50 µg/mL, the IC50 (µg/ml), pseudovirus neutralization [5] was 29 µg/mL and the IC50 [6] was > 50 µg/mL. The IC50 (µg/ml), pseudovirus neutralization [7] was > 50 µg/mL, the IC50 (µg/ml), pseudovirus neutralization [8] was > 50 µg/mL and the IC50 [9] was > 50 µg/mL. The IC50 (µg/ml), pseudovirus neutralization [10] was > 50 µg/mL, the neutralization IC50 (HIV-1 APV-6 Env (HIV-1)) was 7.41 µg/mL and the neutralization IC50 (HIV-1 APV-17 Env (HIV-1)) was > 50 µg/mL. The neutralization IC50 (aMLV envelope) was > 50 µg/mL, the IC50 [11] was > 50 µg/mL and the IC50 (µg/ml), pseudovirus neutralization [12] was > 50 µg/mL. For the same substance, the neutralization IC50 [13] was > 50 µg/mL, the IC50 (µg/ml), pseudovirus neutralization [14] was > 50 µg/mL and the IC50 (µg/ml), pseudovirus neutralization [15] was > 50 µg/mL. The neutralization IC50 (HIV-1 APV-13 Env (HIV-1)) was > 50 µg/mL, the IC50 [16] was > 50 µg/mL and the IC50 [17] was > 50 µg/mL. For the same substance, the IC50 (µg/ml), pseudovirus neutralization [18] was > 50 µg/mL, the IC50 (µg/ml), pseudovirus neutralization [19] was > 50 µg/mL and the IC50 [20] was > 50 µg/mL. For the same substance, the IC50 (µg/ml), pseudovirus neutralization [21] was > 50 µg/mL, the IC50 [22] was > 50 µg/mL and the IC50 [23] was > 50 µg/mL. The IC50 (µg/ml), pseudovirus neutralization [24] was > 50 µg/mL, the IC50 (µg/ml), pseudovirus neutralization [25] was > 50 µg/mL and the IC50 [26] was > 50 µg/mL. The IC50 (pseudovirus neutralization) [27] was > 50 µg/mL, the IC50 (µg/ml), pseudovirus neutralization [28] was > 50 µg/mL and the neutralization IC50 [28] was > 50 µg/mL. For the same substance, the IC50 [29] was 21 µg/mL, the IC50 (pseudovirus neutralization) [30] was > 50 µg/mL and the IC50 (µg/ml), pseudovirus neutralization [31] was > 50 µg/mL. For the same substance, the IC50 [32] was > 50 µg/mL, the IC50 [33] was 12 µg/mL and the IC50 (µg/ml), pseudovirus neutralization [34] was > 50 µg/mL. The IC50 [35] was > 50 µg/mL, the IC50 (pseudovirus neutralization) [36] was > 50 µg/mL and the IC50 [37] was > 50 µg/mL. The IC50 [38] was > 50 µg/mL, the IC50 (µg/ml), pseudovirus neutralization [39] was > 50 µg/mL and the IC50 (pseudovirus neutralization) [40] was > 50 µg/mL. The IC50 (µg/ml), pseudovirus neutralization [41] was > 50 µg/mL, the IC50 (µg/ml), pseudovirus neutralization [42] was > 50 µg/mL and the IC50 [43] was > 50 µg/mL. The neutralization IC50 [44] was > 50 µg/mL, the neutralization IC50 [45] was > 50 µg/mL and the neutralization IC50 [46] was > 50 µg/mL. For the same substance, the neutralization IC50 [47] was > 50 µg/mL and the neutralization IC50 [48] was > 50 µg/mL.
